{"source": "patent US7862994", "target": "human CD4 on the surface of cells (HeLa-CD4+, C8166, PM1, primary human CD4+ T lymphocytes) (human) (UniProt P01730)", "assay": "cell-based or functional assay", "data": [{"substance": "HIV-1JR-FL gp120/gp41 expressed on HeLa cells (HeLa-envJR-FL+)", "values": [{"measurement": "% RET, fusion of HeLa-envJR-FL+ with PM1 cells, no inhibitor", "result": 7.5, "unit": "% RET"}]}, {"substance": "HIV-1LAI gp120/gp41 expressed on HeLa cells (HeLa-envLAI+) (from UniProt P03377 33-861; P03377 33-861)", "values": [{"measurement": "% RET, fusion of HeLa-envLAI+ with C8166 cells, no inhibitor", "result": 13, "unit": "% RET"}, {"measurement": "% RET, fusion of HeLa-envLAI+ with HeLa-CD4+ cells, no inhibitor", "result": 7.3, "unit": "% RET"}]}, {"substance": "OKT4 (mouse monoclonal antibody that binds CD4, Ortho Diagnostic Systems)", "values": [{"measurement": "% inhibition of RET at 0.2 µg/ml, HeLa-env+ + HeLa-CD4+ cells, cuvette method", "result": 0, "unit": "%"}, {"measurement": "% inhibition of RET at 2.0 µg/ml, HeLa-env+ + HeLa-CD4+ cells, cuvette method", "result": 0, "unit": "%"}]}, {"substance": "murine MAb OKT4a (anti-CD4 monoclonal antibody, Ortho Diagnostic Systems)", "values": [{"measurement": "% Inhibition of RET, fusion of HeLa-envJR-FL with LW5 primary CD4+ T cells, OKT4A at 3 ug/ml", "result": 100, "unit": "%"}, {"measurement": "% Inhibition of RET, fusion of HeLa-envLAI with LW5 primary CD4+ T cells, OKT4A at 3 ug/ml", "result": 100, "unit": "%"}, {"measurement": "% RET, fusion of HeLa-envJR-FL+ with PM1 cells in the presence of OKT4A (0.3 µg/ml)", "result": 0.7, "unit": "% RET"}, {"measurement": "% RET, fusion of HeLa-envLAI+ with C8166 cells in the presence of OKT4A (0.3 µg/ml)", "result": 0.6, "unit": "% RET"}, {"measurement": "% RET, fusion of HeLa-envLAI+ with HeLa-CD4+ cells in the presence of OKT4A (0.3 µg/ml)", "result": 0.4, "unit": "% RET"}, {"measurement": "% inhibition of RET at 0.2 µg/ml, HeLa-env+ + HeLa-CD4+ cells, cuvette method", "result": 65, "unit": "%"}]}]}
